# In patent publication US20250326840A1 (QURE BIOTECHNOLOGY SHANGHAI, published 2025):
# Residue numbers refer to the chain shown, from its start. Names and notes keep the numbering of the source.
# B1: QP32700624 (bispecific antibody, human IgG1, kappa, L234A L235A)
# heavy: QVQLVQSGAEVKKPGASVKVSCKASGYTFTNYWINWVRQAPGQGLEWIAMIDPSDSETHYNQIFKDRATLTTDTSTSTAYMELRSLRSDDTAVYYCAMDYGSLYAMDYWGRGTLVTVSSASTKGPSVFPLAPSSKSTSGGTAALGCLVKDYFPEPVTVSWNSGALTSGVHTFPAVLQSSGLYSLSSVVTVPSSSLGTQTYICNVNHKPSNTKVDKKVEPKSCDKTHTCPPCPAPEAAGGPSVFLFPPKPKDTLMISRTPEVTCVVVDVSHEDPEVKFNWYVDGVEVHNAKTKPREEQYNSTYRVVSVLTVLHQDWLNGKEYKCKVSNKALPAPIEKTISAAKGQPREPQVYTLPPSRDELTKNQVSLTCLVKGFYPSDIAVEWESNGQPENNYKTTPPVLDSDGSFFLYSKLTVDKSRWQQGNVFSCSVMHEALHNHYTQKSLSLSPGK
# light: EVQLLESGGGLVQPGGSLRLSCAASGFTLDDYAIGWFRQAPGKGREGVSCISKSGETTFFVESVKDRFTISRDNSKNTLYLQMNSLRAEDTAVYYCATGSWCTVGSMSRQFYRQFFHSWGQGTLVTVSSGGGGSGGGGSDIVLTQSPDSLAVSLGERATINCRASQSVRSSGYNWIFWYQQKPGQPPKLLIYLASNRDSGVPDRFSGSGSGTDFTLTISSLQAEDVAVYYCQHSRELPTFGQGTKLEIKRTVAAPSVFIFPPSDEQLKSGTASVVCLLNNFYPREAKVQWKVDNALQSGNSQESVTEQDSKDSTYSLSSTLTLSKADYEKHKVYACEVTHQGLSSPVTKSFNRGEC
# notes: Anti-PD-L1 VHH-(G4S)2 fused to the N-terminus of the light chain
# B2: QP32700623 (bispecific antibody, human IgG1, kappa, L234A L235A)
# heavy: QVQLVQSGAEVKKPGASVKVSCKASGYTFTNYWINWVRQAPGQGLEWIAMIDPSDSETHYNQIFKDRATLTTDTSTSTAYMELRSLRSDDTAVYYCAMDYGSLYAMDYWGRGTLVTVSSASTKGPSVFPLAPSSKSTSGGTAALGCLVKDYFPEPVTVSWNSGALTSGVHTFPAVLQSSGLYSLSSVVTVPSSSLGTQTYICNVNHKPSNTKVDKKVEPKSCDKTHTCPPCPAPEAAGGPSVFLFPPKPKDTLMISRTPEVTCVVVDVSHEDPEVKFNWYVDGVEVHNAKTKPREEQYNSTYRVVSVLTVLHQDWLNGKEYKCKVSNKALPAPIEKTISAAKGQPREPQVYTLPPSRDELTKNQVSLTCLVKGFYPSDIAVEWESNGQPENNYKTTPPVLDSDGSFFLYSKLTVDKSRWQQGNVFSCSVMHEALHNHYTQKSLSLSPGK
# light: EVQLLESGGGLVQPGGSLRLSCAASGFTLDDYAIGWFRQAPGKGREGVSCISKSGETTFFVESVKDRFTISRDNSKNTLYLQMNSLRAEDTAVYYCATGSWCTVGSMSRQFYRQFFHSWGQGTLVTVSSGGGGSDIVLTQSPDSLAVSLGERATINCRASQSVRSSGYNWIFWYQQKPGQPPKLLIYLASNRDSGVPDRFSGSGSGTDFTLTISSLQAEDVAVYYCQHSRELPTFGQGTKLEIKRTVAAPSVFIFPPSDEQLKSGTASVVCLLNNFYPREAKVQWKVDNALQSGNSQESVTEQDSKDSTYSLSSTLTLSKADYEKHKVYACEVTHQGLSSPVTKSFNRGEC
# notes: Anti-PD-L1 VHH-G4S fused to the N-terminus of the light chain
# B3: QP06260279 (bispecific antibody, human IgG1, kappa, L234A L235A)
# heavy: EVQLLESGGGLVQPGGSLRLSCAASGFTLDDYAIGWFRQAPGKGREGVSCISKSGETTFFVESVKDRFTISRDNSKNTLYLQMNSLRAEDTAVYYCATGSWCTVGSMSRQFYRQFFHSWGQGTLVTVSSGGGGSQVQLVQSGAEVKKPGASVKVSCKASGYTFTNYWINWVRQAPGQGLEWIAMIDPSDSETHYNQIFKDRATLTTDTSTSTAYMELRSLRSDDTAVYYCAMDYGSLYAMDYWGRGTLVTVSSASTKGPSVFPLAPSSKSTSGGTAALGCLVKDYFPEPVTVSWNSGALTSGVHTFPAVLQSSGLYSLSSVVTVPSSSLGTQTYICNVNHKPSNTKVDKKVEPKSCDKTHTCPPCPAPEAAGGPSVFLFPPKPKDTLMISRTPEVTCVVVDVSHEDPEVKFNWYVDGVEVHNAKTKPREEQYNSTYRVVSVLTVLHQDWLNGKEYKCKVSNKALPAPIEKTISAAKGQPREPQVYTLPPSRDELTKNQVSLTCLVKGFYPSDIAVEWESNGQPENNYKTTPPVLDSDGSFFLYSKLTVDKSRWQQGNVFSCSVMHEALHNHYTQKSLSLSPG
# light: DIVLTQSPDSLAVSLGERATINCRASQSVRSSGYNWIFWYQQKPGQPPKLLIYLASNRDSGVPDRFSGSGSGTDFTLTISSLQAEDVAVYYCQHSRELPTFGQGTKLEIKRTVAAPSVFIFPPSDEQLKSGTASVVCLLNNFYPREAKVQWKVDNALQSGNSQESVTEQDSKDSTYSLSSTLTLSKADYEKHKVYACEVTHQGLSSPVTKSFNRGEC
# notes: Anti-PD-L1 VHH-G4S fused to the N-terminus of the heavy chain
# B4: QP06270279 (bispecific antibody, human IgG1, kappa, L234A L235A)
# heavy: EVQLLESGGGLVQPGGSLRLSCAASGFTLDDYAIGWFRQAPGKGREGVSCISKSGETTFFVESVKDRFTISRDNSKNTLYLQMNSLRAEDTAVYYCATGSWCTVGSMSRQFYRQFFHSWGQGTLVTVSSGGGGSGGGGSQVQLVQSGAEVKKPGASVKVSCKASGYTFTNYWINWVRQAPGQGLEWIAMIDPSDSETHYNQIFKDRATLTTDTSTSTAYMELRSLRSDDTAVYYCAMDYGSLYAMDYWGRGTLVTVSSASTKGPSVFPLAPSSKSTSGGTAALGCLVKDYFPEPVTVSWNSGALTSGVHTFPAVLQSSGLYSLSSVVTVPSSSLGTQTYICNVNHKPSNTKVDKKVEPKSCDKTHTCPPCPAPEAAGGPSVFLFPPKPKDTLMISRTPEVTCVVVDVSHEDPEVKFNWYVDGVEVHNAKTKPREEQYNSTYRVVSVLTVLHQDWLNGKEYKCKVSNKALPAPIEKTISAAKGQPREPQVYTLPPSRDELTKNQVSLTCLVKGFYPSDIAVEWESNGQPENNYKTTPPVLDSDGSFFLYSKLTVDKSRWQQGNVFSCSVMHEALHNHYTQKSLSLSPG
# light: B3 light
# notes: Anti-PD-L1 VHH-(G4S)2 fused to the N-terminus of the heavy chain
# B5: QP06280279 (bispecific antibody, human IgG1, kappa, L234A L235A)
# heavy: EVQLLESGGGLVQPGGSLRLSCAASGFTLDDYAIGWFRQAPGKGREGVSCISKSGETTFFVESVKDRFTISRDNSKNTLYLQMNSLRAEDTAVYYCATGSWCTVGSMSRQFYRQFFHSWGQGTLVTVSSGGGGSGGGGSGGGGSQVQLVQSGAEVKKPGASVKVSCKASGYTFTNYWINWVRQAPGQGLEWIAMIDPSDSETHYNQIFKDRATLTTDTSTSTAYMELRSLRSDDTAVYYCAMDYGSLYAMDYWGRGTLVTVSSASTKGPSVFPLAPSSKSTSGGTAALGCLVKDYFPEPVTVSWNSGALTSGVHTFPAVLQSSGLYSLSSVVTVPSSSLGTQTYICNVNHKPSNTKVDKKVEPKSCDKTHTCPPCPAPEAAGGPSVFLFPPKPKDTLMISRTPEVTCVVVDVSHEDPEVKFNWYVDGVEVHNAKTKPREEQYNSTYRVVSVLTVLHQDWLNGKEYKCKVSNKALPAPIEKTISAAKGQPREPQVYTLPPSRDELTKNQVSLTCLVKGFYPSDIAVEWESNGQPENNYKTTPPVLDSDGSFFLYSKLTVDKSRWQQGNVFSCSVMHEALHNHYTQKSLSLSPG
# light: B3 light
# notes: Anti-PD-L1 VHH-(G4S)3 fused to the N-terminus of the heavy chain
# B6: QP256291 (antibody, human IgG4, V domains shown)
# VH: QVQLVQSGAEVKKPGASVKVSCKASGYTFTNYWINWVRQAPGQGLEWIAMIDPSDSETHYNQIFKDRATLTTDTSTSTAYMELRSLRSDDTAVYYCAMDYGSLYAMDYWGRGTLVTVSS
# VL: DIVLTQSPDSLAVSLGERATINCRASKSVGSSGYNWLFWYQQKPGQPPKLLIYLASNRDSGVPDRFSGSGSGTDFTLTISSLQAEDVAVYYCQHSRELPTFGQGTKLEIK
# notes: Human IgG4 heavy constant region and kappa CL
# B7: QP2561771 (antibody, human IgG4, V domains shown)
# VH: B6 VH
# VL: B6 VL with G30S, L37I, H94E
# notes: as for B6
# B8: QP2561770 (antibody, human IgG4, V domains shown)
# VH: B6 VH
# VL: B6 VL with K27Q, G30R, L37I, H94E
# notes: as for B6
# B9: QP2561586 (antibody, human IgG4, V domains shown)
# VH: B6 VH
# VL: B6 VL with G30S, W36Y, L37I, R58L, H94E
# notes: as for B6
# B10: QP2561589 (antibody, human IgG4, V domains shown)
# VH: B6 VH
# VL: B6 VL with G30S, W36Y, L37I, R58L, H94E, R96W
# notes: as for B6
# B11: QP2561581 (antibody, human IgG4, V domains shown)
# VH: B6 VH
# VL: B6 VL with G30S, W36Y, L37I, R58L, S60P
# notes: as for B6
# B12: QP2561594 (antibody, human IgG4, V domains shown)
# VH: B6 VH
# VL: B6 VL with G30S, W36Y, L37I, R58L, E97D
# notes: as for B6
# Target: PD-L1-mouse Fc protein (human, UniProt Q9NZQ7 19-239, limits assumed)
# Experiment: blocking ELISA: QP1138 (PD1-FC) coated, PDL1-mouse FC mixed with the antibody, HRP anti-mouse IgG; blocked partner: PD-1; unit from the x axis Log(Conc.(nM))
# Chain of PD-L1-mouse Fc protein (Q9NZQ7 19-239 limits assumed): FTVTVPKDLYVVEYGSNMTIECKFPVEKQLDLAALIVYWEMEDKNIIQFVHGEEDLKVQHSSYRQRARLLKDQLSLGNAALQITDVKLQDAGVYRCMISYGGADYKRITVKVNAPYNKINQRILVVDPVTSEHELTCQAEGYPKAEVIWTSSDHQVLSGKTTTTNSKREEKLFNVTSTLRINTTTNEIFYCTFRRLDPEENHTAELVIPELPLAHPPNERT
row,Binder,IC50 [pM]
1,B1,663

# Target: QP003 (PDL1-his)
# Experiment: ELISA, QP003 (PDL1-his) captured on coated anti-his, anti-hFc detection; unit from the x axis Log(Conc.(nM))
# Chain of QP003 (PDL1-his) (chain, as listed by the source limits assumed): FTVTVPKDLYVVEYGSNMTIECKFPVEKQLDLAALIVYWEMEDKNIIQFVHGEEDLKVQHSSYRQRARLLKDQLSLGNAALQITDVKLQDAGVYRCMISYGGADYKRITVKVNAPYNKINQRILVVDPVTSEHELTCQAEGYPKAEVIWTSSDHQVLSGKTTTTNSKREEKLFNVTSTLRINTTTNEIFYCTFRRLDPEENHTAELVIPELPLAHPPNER
row,Binder,EC50 [pM]
1,B1,13.4
2,B2,20.5
3,B3,17.6
4,B4,19.8
5,B5,21.5

# Target: T1, QP002 (biotinylated in the blocking assays, sites not given)
# T1 construct: also called SIRPα-FC; Biotin-QP002
# Experiment: blocking ELISA: QP001.2 (CD47) coated, biotin-QP002 (SIRPα-FC) mixed with the antibody, HRP-streptavidin; blocked ligand: CD47; unit from the x axis Log[Conc.(ug/ml)]
# T1 sequence (SIRPα-Fc fusion chain, as listed by the source): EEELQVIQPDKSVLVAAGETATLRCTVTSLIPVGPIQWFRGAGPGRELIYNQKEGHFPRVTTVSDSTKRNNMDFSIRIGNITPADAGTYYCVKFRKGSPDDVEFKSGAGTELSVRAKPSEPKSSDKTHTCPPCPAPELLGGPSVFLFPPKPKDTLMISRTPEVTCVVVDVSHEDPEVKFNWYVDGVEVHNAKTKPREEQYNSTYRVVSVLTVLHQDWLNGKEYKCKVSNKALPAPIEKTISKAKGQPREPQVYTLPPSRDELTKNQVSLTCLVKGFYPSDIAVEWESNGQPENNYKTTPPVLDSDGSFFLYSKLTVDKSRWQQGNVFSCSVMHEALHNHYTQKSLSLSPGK
row,Binder,IC50 [ng/mL]
1,B6,23.4
2,B7,23.3
3,B8,25

# Target: T2, QP271 (rhesus SIRPα1-flag-his T-557-28) (rhesus monkey)
# T2 construct: also called rhesus monkey SIRPα (QP271); monkeySIRPα1-flag-his
# T2 chain: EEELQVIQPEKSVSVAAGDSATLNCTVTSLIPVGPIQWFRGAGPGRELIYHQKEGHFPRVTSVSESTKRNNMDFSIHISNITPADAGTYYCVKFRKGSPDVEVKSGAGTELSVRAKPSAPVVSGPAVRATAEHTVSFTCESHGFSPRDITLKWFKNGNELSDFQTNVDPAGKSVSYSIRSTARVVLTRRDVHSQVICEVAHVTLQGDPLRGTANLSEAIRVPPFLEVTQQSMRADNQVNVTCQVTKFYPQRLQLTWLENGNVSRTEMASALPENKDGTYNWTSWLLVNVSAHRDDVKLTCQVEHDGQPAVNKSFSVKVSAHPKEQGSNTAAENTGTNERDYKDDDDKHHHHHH
# Experiment: SPR, Biacore
row,Binder,Kd [pM]
1,B9,1740
2,B10,2410
3,B8,100

# Target: T3, QP273 (cynoSIRPα2-flag-his T-557-14) (cynomolgus)
# T3 construct: also called cynomolgus SIRPα (QP273)
# T3 chain: T2 chain with D19E, V27A, A42V, H51S, S62P, E65D, S66P, H77R, V103L
# Experiment: SPR, Biacore
row,Binder,Kd [pM]
1,B9,2220
2,B10,3200
3,B8,163

# Target: T4, QP096 (human SIRPα V2 ECD(E31-R370)-flag-his) (human)
# T4 construct: the construct carries flag and his tags; also called SIRPαV2-Flag-his; Human SIRPα V2 (QP096)
# Experiment: SPR, Biacore
# T4 sequence (chain, as listed by the source limits assumed): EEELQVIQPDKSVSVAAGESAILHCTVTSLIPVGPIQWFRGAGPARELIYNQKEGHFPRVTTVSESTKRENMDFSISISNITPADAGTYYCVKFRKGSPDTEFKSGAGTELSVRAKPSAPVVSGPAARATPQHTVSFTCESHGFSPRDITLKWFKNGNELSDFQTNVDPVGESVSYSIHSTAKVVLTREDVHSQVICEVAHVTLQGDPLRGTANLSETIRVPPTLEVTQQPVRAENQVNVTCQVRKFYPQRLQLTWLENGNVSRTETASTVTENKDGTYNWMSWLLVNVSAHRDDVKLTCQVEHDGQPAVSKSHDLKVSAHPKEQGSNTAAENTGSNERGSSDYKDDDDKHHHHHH
row,Binder,Kd [pM]
1,B11,176
2,B9,89.1
3,B10,39.2
4,B8,36.8

# Target: T5, QP094 (human SIRPα V1 ECD(E31-R370)-flag-his) (human, UniProt P78324 31-370)
# T5 construct: the construct carries flag and his tags; also called SIRPαV1-flag-his; SIRPαV1-his (QP094)
# Experiment: SPR, Biacore
# T5 sequence (P78324 other isoform, or with tags, fused parts or gaps limits assumed): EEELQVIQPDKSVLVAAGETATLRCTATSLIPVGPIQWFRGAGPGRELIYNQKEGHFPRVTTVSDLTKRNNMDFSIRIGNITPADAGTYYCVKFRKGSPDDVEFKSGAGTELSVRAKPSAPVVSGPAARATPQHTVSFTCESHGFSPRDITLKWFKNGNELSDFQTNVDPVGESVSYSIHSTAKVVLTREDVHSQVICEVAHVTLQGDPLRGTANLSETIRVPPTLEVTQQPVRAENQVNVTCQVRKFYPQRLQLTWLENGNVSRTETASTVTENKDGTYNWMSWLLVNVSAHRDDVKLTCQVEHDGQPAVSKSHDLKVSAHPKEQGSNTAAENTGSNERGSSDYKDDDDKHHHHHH
row,Binder,Kd [pM]
1,B11,137
2,B9,59.7
3,B10,85
4,B8,28.8

# Target: T6, QP098 (cyno SIRPα (I7G9Z7) ECD(E31-R369)-flag-his) (cynomolgus)
# T6 construct: the construct carries flag and his tags; also called cynoSIRPα (ECD); cynomolgus SIRPα
# T6 chain: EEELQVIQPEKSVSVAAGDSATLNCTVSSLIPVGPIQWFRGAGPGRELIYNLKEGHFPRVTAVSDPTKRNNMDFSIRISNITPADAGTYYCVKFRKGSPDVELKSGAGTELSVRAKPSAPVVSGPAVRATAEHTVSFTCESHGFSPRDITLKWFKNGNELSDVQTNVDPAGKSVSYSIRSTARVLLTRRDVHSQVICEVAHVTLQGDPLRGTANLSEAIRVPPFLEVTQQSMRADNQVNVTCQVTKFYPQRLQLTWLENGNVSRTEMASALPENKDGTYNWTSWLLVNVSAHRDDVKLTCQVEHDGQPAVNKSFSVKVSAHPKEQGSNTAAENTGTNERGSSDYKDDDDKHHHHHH
# Experiment: SPR, Biacore
row,Binder,Kd [pM]
1,B9,4220
2,B10,6030
3,B8,256

# Target: T7, PD-L1-his (QPP09) (human, UniProt Q9NZQ7 19-239, limits assumed)
# T7 construct: also called human PD-L1; human PD-L1 recombinant protein
# Experiment: SPR, Biacore 8K
# T7 sequence (Q9NZQ7 19-239 limits assumed): as the sequence (Q9NZQ7 19-239 limits assumed) above
Binder,Kd [pM],koff [s⁻¹],kon [M⁻¹ s⁻¹]
B1,1640,0.00122,744000

# Target: T2, QP271 (rhesus SIRPα1-flag-his T-557-28)
# Experiment: binding ELISA, antigen coated
row,Binder,EC50 [ng/mL]
1,B6,1.17
2,B11,0.555
3,B12,0.807
4,B9,0.967
5,B10,0.936
6,B7,1.13
7,B8,1.21

# Target: T3, QP273 (cynoSIRPα2-flag-his T-557-14)
# Experiment: binding ELISA, antigen coated
row,Binder,EC50 [ng/mL]
1,B6,1.62
2,B11,0.921
3,B12,2.35
4,B9,1.03
5,B10,1.43
6,B7,1.22
7,B8,1.68

# Target: T4, QP096 (human SIRPα V2 …)
# Experiment: binding ELISA, antigen coated
row,Binder,EC50 [ng/mL]
1,B6,1.43
2,B11,0.862
3,B12,1.05
4,B9,1.11
5,B10,1.17
6,B7,1.13
7,B8,1.36

# Target: T5, QP094 (human SIRPα V1 …)
# Experiment: binding ELISA, antigen coated
row,Binder,EC50 [ng/mL]
1,B6,1.86
2,B11,1.07
3,B12,1.12
4,B9,1.05
5,B10,1.37
6,B7,1.15
7,B8,1.61

# Target: T6, QP098 (cyno SIRPα (I7G9Z7) …)
# Experiment: binding ELISA, antigen coated
row,Binder,EC50 [ng/mL]
1,B6,1.57
2,B11,0.918
3,B12,1.13
4,B9,1.2
5,B10,1.6
6,B7,1.08
7,B8,1.3

# Target: T8, QP100 (cyno SIRPα (G7PGS8) ECD(E29-R368)-flag-his) (cynomolgus)
# T8 construct: the construct carries flag and his tags; also called cynoSIRPα-flag-his; Cynomolgus SIRPα (QP100)
# T8 chain: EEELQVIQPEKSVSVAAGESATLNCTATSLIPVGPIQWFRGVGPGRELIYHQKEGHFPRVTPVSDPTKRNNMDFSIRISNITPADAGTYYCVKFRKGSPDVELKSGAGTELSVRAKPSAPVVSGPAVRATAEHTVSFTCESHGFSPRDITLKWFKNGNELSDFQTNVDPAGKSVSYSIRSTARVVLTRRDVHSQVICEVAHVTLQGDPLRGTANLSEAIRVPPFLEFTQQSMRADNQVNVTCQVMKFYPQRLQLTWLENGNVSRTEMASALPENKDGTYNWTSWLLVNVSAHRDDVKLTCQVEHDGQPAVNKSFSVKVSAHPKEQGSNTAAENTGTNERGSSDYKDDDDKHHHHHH
# Experiment: binding ELISA, antigen coated
row,Binder,EC50 [ng/mL]
1,B6,1.18
2,B11,0.758
3,B12,0.983
4,B9,1.23
5,B10,2.01
6,B7,1.13
7,B8,1.01

# Target: T1, QP002
# Experiment: blocking ELISA: QP001.2 (CD47) coated, biotin-QP002 (SIRPα-FC) mixed with the antibody, HRP-streptavidin; blocked ligand: CD47
row,Binder,IC50 (read off the curve) [ng/mL]
1,B11,~20
2,B12,~20
3,B9,~20
4,B10,~20
